In US20140205597A1:

How the values were obtained:
[1] = biological target: analytical polyclonal antibody obtained in Example 2; experiment: SPR Biacore T100, immobilized polyclonal, 500 nM ISV
[2] = biological target: affinity purified antibody IHuP#002-001-ABL-08; experiment: ECL bridging/competition assay, 10 ug/ml ISV vs tagged ISV
[3] = biological target: serum sample IHUS#B09032311A20; experiment: ECL displacement assay, variant competes with tagged SEQ ID NO:1
[4] = biological target: serum sample IHUS#B09032311A3; experiment: as above
[5] = biological target: serum sample IHUS#B09032311A1; experiment: as above

Binder | Binding (RU) [1] [RU] | % reduction [2] [%] | ECLU confirmatory assay [2] [ECLU] | % reduction [3] [%] | ECLU confirmatory assay [3] [ECLU] | % reduction [4] [%] | ECLU confirmatory assay [4] [ECLU] | % reduction [5] [%] | ECLU confirmatory assay [5] [ECLU]
Nb3.10 (VHH) VHH: EVQLVESGGGLVQAGGSLRLSCAASRSIGRLDRMGWYRHRPGEPRELVATITGGSSINYGDSVKGRFTISIDNSKNTVYLQMNSLRPEDTAVYYCNFNKYVTSRDTWGQGTLVTVSS | 91 | – | – | – | – | – | – | – | –
Nb3.11 (VHH) VHH: EVQLVESGGGLVQPGGSLRLSCAASRSIGRLDRMGWYRHRPGEPRELVATITGGSSINYGDSVKGRFTISIDNSKNTVYLQMNSLKPEDTAVYYCNFNKYVTSRDTWGQGTLVTVSS | 88 | – | – | – | – | – | – | – | –
Nb3.1 (VHH) VHH: EVQLVESGGGLVQAGGSLRLSCAASRSIGRLDRMGWYRHRTGEPRELVATITGGSSINYGDFVKGRFTISIDNAKNTVYLQMNNLKPEDTAVYYCNFNKYVTSRDTWGQGTQVTVSS | 2 | – | – | – | – | – | – | – | –
Example 1C: wildtype VHH (SEQ ID NO: 23) (VHH) VHH: EVQLVESGGGLVQAGGSLRLSCAASGRTFNNYAMGWFRRAPGKEREFVAAITRSGVRSGVSAIYGDSVKDRFTISRDNAKNTLYLQMNSLKPEDTAVYTCAASAIGSGALRRFEYDYSGQGTQVTVSS | – | 7.3 | 2710 | 53 | 8680 | 20 | 1780 | 4 | 60
Example 1C: (A14P) (SEQ ID NO: 24) (VHH) VHH: EVQLVESGGGLVQPGGSLRLSCAASGRTFNNYAMGWFRRAPGKEREFVAAITRSGVRSGVSAIYGDSVKDRFTISRDNAKNTLYLQMNSLKPEDTAVYTCAASAIGSGALRRFEYDYSGQGTQVTVSS | – | 90.8 | 268 | 96 | 668 | 91 | 205 | 10 | 56
Example 1C: (A14P, R39Q, K83R, T91Y, Q108L) (SEQ ID NO: 28) (VHH) VHH: EVQLVESGGGLVQPGGSLRLSCAASGRTFNNYAMGWFRQAPGKEREFVAAITRSGVRSGVSAIYGDSVKDRFTISRDNAKNTLYLQMNSLRPEDTAVYYCAASAIGSGALRRFEYDYSGQGTLVTVSS | – | 91.4 | 251 | 97 | 570 | 90 | 228 | 6 | 58
Example 1C: (Q108L) (SEQ ID NO: 26) (VHH) VHH: EVQLVESGGGLVQAGGSLRLSCAASGRTFNNYAMGWFRRAPGKEREFVAAITRSGVRSGVSAIYGDSVKDRFTISRDNAKNTLYLQMNSLKPEDTAVYTCAASAIGSGALRRFEYDYSGQGTLVTVSS | – | 13.2 | 2530 | 62 | 6990 | 31 | 1530 | 5 | 59
Example 1C: (A14P, K83R, Q108L) (SEQ ID NO: 27) (VHH) VHH: EVQLVESGGGLVQPGGSLRLSCAASGRTFNNYAMGWFRRAPGKEREFVAAITRSGVRSGVSAIYGDSVKDRFTISRDNAKNTLYLQMNSLRPEDTAVYTCAASAIGSGALRRFEYDYSGQGTLVTVSS | – | 89.1 | 319 | 97 | 628 | 93 | 156 | 8 | 57
Example 1C: (K83R) (SEQ ID NO: 25) (VHH) VHH: EVQLVESGGGLVQAGGSLRLSCAASGRTFNNYAMGWFRRAPGKEREFVAAITRSGVRSGVSAIYGDSVKDRFTISRDNAKNTLYLQMNSLRPEDTAVYTCAASAIGSGALRRFEYDYSGQGTQVTVSS | – | 15.7 | 2460 | 63 | 6910 | 37 | 1400 | 1 | 62

Results, then the binder that gave them:

Binding (RU) [1] [RU] | % reduction [2] [%] | ECLU confirmatory assay [2] [ECLU] | % reduction [3] [%] | ECLU confirmatory assay [3] [ECLU] | % reduction [4] [%] | ECLU confirmatory assay [4] [ECLU] | % reduction [5] [%] | ECLU confirmatory assay [5] [ECLU] | Binder
51 | – | – | – | – | – | – | – | – | Nb4.1 (VHH) VHH: EVQLVESGGGLVQPGGSLRLSCAASGSVFKINVMAWYRQAPGKGRELVAGIISGGSTSYADSVKGRFTISRDNAKNTLYLQMNSLRPEDTAVYYCAFITTESDYDLGRRYWGQGTLVTVSS
66 | – | – | – | – | – | – | – | – | Nb6.5 (VHH) VHH: EVQLLESGGGLVQPGGSLRLSCAASGLPFSTKSMGWFRQAPGKGREFVSRISPGGTSRYYGDFVKGRFTISRDNSKNTLYLQMNSLRAEDTAVYYCASGERSTYIGSNYYRTNEYDYWGQGTLVTVSS
39 | – | – | – | – | – | – | – | – | Nb6.2 (VHH) VHH: EVQLVESGGGLVQPGGSLRLSCIASGLPFSTKSMGWFRQAPGKEREFVARISPGGTSRYYGDFVKGRFAISRDNAKNTTWLQMNSLKAEDTAVYYCASGERSTYIGSNYYRTNEYDYWGTGTQVTVSS
22 | – | – | – | – | – | – | – | – | Nb3.15 (VHH) VHH: EVQLVESGGGSVQPGGSLRLSCAASRSIGRLDRMGWYRHRPGEPRELVATITGGSSINYGDSVKGRFTISIDNSKNTVYLQMNSLRPEDTAVYYCNFNKYVTSRDTWGQGTLVTVSS
90 | – | – | – | – | – | – | – | – | Nb3.13 (VHH) VHH: EVQLVESGGGLVQPGGSLRLSCAASRSIGRLDRMGWYRHRPGEPRELVATITGGSSINYGDSVKGRFTISIDNSKNTVYLQMNSLRPEDTAVYYCNFNKYVTSRDTWGQGTQVTVSS
86 | – | – | – | – | – | – | – | – | Nb3.12 (VHH) VHH: EVQLVESGGGLVQAGGSLRLSCAASRSIGRLDRMGWYRHRPGEPRELVATITGGSSINYGDSVKGRFTISIDNSKNTVYLQMNSLRPEDTAVYYCNFNKYVTSRDTWGQGTQVTVSS
79 | – | – | – | – | – | – | – | – | Nb3.14 (VHH) VHH: EVQLVESGGGLVQPGGSLRLSCAASRSIGRLDRMGWYRHRPGEPRELVATITGGSSINYGDSVKGRFTISIDNSKNTVYLQMNSLRPEDTAVYYCNFNKYVTSRDTWGQGTLVQVSS
